{
  "source": "patent US20260201067A1",
  "about": "“DPP3 INHIBITOR FOR IMPROVEMENT OF PULMONARY FUNCTION IN CRITICALLY ILL PATIENTS” (4TEEN4 Pharmaceuticals GmbH, priority 2022, published 2026)",
  "key": {"[1]": {"biological_target": "T1, DPP3 (Homo sapiens, UniProt Q9NY33)", "T1 sequence (Q9NY33 1-737)": "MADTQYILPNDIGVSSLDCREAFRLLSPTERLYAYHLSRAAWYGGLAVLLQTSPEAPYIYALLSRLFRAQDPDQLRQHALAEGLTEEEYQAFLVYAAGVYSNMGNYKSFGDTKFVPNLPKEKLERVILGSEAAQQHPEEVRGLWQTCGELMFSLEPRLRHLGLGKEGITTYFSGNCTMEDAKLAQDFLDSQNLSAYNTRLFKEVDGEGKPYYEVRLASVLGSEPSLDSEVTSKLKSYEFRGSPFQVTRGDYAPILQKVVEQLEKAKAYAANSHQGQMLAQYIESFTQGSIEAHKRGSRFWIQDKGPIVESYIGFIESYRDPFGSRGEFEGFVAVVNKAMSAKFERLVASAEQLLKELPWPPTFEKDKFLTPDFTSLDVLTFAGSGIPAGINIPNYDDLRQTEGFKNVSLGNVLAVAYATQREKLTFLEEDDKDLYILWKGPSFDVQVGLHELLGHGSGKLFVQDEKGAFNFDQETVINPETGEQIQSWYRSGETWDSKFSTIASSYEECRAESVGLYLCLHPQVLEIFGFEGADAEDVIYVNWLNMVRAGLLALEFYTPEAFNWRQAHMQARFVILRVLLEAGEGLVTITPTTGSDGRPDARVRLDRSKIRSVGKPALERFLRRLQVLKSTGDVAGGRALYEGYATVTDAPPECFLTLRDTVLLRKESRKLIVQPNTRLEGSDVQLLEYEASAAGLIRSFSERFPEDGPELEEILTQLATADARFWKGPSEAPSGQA", "conditions": "literature; cited from earlier work"}, "[2]": {"system": "healthy mice injected with DPP3", "assay": "Effect of Valsartan in healthy mice injected with DPP3", "assay_type": "in vivo, Black 6 mice", "description": "In this experiment, healthy Black 6 mice (8-12 weeks, group size refer to table 8) consumed water with 50 mg/kg Valsartan per day or just water (Table 8) for a period of two weeks. Subsequently, both groups received an intravenous injection of native DPP3 (600 μg/kg) and the shortening fraction was assessed according to Gao et al., 2011 at 15, 60 and 120 minutes (FIG. 12)."}, "[3]": {"biological_target": "T2, native human DPP3 from blood cells (human, UniProt Q9NY33 2-737)", "T2 sequence": "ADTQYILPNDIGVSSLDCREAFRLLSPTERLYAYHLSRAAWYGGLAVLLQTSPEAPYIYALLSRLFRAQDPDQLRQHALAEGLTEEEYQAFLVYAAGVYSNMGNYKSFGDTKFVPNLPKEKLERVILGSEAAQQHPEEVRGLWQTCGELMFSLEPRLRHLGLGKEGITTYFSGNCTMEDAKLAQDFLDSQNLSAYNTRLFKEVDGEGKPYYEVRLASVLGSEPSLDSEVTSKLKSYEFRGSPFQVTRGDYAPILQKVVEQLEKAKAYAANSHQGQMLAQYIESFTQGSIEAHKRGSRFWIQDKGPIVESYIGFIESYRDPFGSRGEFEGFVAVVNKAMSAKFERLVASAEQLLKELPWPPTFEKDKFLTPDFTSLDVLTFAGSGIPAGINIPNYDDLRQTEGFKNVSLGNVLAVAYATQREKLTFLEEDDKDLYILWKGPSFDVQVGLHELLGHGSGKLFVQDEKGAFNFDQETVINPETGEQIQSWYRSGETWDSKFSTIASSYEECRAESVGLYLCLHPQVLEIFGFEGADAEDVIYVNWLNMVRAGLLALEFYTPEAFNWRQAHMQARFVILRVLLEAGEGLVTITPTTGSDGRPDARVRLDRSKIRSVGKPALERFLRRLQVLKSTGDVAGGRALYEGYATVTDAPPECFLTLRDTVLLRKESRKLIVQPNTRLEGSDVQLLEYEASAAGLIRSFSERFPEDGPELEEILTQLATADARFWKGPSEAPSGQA", "assay": "cell-based or functional assay"}, "[4]": {"system": "healthy mice", "assay": "Effect of native DPP3 injection in healthy mice", "assay_type": "in vivo, Black 6 mice", "conditions": "600 μg/kg i.v., versus PBS", "description": "Wild type Black 6 mice (8-12 weeks, group size refer to table 3) were acclimated during 2 weeks and a baseline echocardiography was done. The mice were randomly allocated to one of the two groups and, subsequently, native DPP3 protein or PBS were injected intravenously via a retro-orbital injection with a dose of 600 μg/kg for DPP3 protein.\nAfter DPP3 or PBS injection, cardiac function was assessed by echocardiography (Gao et al. 2011) and renal function assessed by renal resistive index (Lubas et al., 2014, Dewitte et al, 2012) at 15, 60 and 120 minutes (FIG. 3)."}},
  "note": "“Also recorded” adds a separate entry of the source.",
  "data": [
    {"molecule": "Cc1cc(=O)c2c(cc(O)c3c4c(O)cccc4c(=O)c32)c1=O", "note": "[Fluostatin A]", "values": [
      {"measurement": "inhibition of DPP3 activity", "setting": "[1]", "result": "strongly inhibit DPP3 activity"}
    ]},
    {"molecule": "CC1C(=O)c2cc(O)c3c(c2C(O)C1O)C(=O)c1cccc(O)c1-3", "note": "(stereo not drawn) [Fluostatin B]", "values": [
      {"measurement": "inhibition of DPP3 activity", "setting": "[1]", "result": "strongly inhibit DPP3 activity"}
    ]},
    {"molecule": "CCCCC(=O)N(Cc1ccc(-c2ccccc2-c2nnn[nH]2)cc1)[C@H](C(=O)O)C(C)C", "note": "[Valsartan]", "values": [
      {"measurement": "shortening fraction after DPP3 injection", "setting": "[2]; 50 mg/kg Valsartan per day in water for two weeks, then native DPP3 600 μg/kg i.v.", "result": "rescued; also recorded: no signs of heart dysfunction"}
    ]},
    {"molecule": "murine monoclonal anti-DPP3 antibody AK1967 (antibody, V domains shown) VH: QVTLKESGPGILQPSQTLSLTCSFSGFSLSTSGMSVGWIRQPSGKGLEWLAHIWWNDNKSYNPALKSRLTISRDTSNNQVFLKIASVVTADTGTYFCARNYSYDYWGQGTTLTVSS VL: DVVVTQTPLSLSVSLGDPASISCRSSRSLVHSIGSTYLHWYLQKPGQSPKLLIYKVSNRFSGVPDRFSGSGSGTDFTLKISRVEAEDLGVYFCSQSTHVPWTFGGGTKLEIK", "values": [
      {"measurement": "IC50 (read off the curve)", "setting": "[3]", "result": "~10", "unit": "ng/mL"}
    ]},
    {"molecule": "native DPP3: native human DPP3 purified from human erythrocyte lysate (protein) ADTQYILPNDIGVSSLDCREAFRLLSPTERLYAYHLSRAAWYGGLAVLLQTSPEAPYIYALLSRLFRAQDPDQLRQHALAEGLTEEEYQAFLVYAAGVYSNMGNYKSFGDTKFVPNLPKEKLERVILGSEAAQQHPEEVRGLWQTCGELMFSLEPRLRHLGLGKEGITTYFSGNCTMEDAKLAQDFLDSQNLSAYNTRLFKEVDGEGKPYYEVRLASVLGSEPSLDSEVTSKLKSYEFRGSPFQVTRGDYAPILQKVVEQLEKAKAYAANSHQGQMLAQYIESFTQGSIEAHKRGSRFWIQDKGPIVESYIGFIESYRDPFGSRGEFEGFVAVVNKAMSAKFERLVASAEQLLKELPWPPTFEKDKFLTPDFTSLDVLTFAGSGIPAGINIPNYDDLRQTEGFKNVSLGNVLAVAYATQREKLTFLEEDDKDLYILWKGPSFDVQVGLHELLGHGSGKLFVQDEKGAFNFDQETVINPETGEQIQSWYRSGETWDSKFSTIASSYEECRAESVGLYLCLHPQVLEIFGFEGADAEDVIYVNWLNMVRAGLLALEFYTPEAFNWRQAHMQARFVILRVLLEAGEGLVTITPTTGSDGRPDARVRLDRSKIRSVGKPALERFLRRLQVLKSTGDVAGGRALYEGYATVTDAPPECFLTLRDTVLLRKESRKLIVQPNTRLEGSDVQLLEYEASAAGLIRSFSERFPEDGPELEEILTQLATADARFWKGPSEAPSGQA", "values": [
      {"measurement": "shortening fraction after DPP3 injection", "setting": "[2]; native DPP3 600 μg/kg i.v., no Valsartan", "result": "significant decrease in the shortening fraction"},
      {"measurement": "renal resistive index", "setting": "[4]", "result": "renal resistive index increase"},
      {"measurement": "shortening fraction", "setting": "[4]", "result": "significantly reduced shortening fraction"},
      {"measurement": "renal resistive index", "setting": "[4]; listed as DPP3", "result": "increased renal resistive index"},
      {"measurement": "shortening fraction", "setting": "[4]; listed as DPP3", "result": "shortening fraction reduction"}
    ]}
  ]
}
